In the nanobody polyreactivity screen of Harvey et al. (2022):

Assay: yeast display, Sf9 membrane polyspecificity reagent, FACS + sequencing; frameworks hold sequencing errors
Procedure, shortened: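 Genes from sorted yeast were amplified by colony PCR, read by MiSeq 2 × 250 sequencing and filtered on CDR length. These cells carried a synthetic nanobody library in Saccharomyces cerevisiae BJ5465 and were sorted by FACS into low and high (top ~1%) gates on anti-HA and streptavidin fluorescence. Polyreactivity is labelled according to the gate of origin.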

Row | Sequence | polyreactivity (PSR sort gate)
1 | QVQLQESGGGLVQAGGGLRLSCAASGTISGPHVMGWYRQAPGKEREFVAAINVGANTYYADNVKGRFTISRDNAKNTVYLQMNSLNPEDTAVYYCAAVYYGDIGHEYWGQGTQVTVSC | low polyreactivity
2 | QVQLVDSGGGLVQAGGSLRLSCAASGFIFWYYAMGWYRQEPRKERELVAAITSGGNTNYADSVKGRFTISRDNAKNTVYLQMNSLKPEDTAVYYCATGRASGREHDSWGQGTQVTVSS | low polyreactivity
3 | QVQLVESGGGLVHAGGSLRLSCAASGRTFVSYAMGWYRQAPGKERELVAAITNAGSTYYADSVKGRFTISRDNAKNTVYLQMNSLKPEDTAVYYCAATYWDYWGYGYDYWGQGTQVTVSS | high polyreactivity
4 | QVHLVESGGGLVQAGGSLRLSCAASGSTVTLYAMGWYRQAPGKERELVASITWSGSTYADSVKGRFTISRDNAKNTVYLQMNSLKPEDTAVYYCNTDPRSVVGWYDYWGQGTQVTVSS | low polyreactivity
5 | QVQLVESGGGLVQAGGSLRLSCAASGSIFVTNAMGWYRQAPGKEREMVATITSSGSTNYADSVKGRFTISRDNAKNTVYLQMNSLKPEDTAVYYCAKRWLWYYWGFAPSDYWGQGTQVTVSS | low polyreactivity
6 | QVQLVESGGGLVQAGGSLRLSCAASGRTFQTYARGWYRQAPGKERELVAAISKSGGGTYYADSVKGRFTISRDNAKNTVYLQMNSLKPEDTAVYYCATAGYHYRAWGGRYDYWGQGTQVTVSS | high polyreactivity
7 | QVQLVESGGGLVQAGGSLRLSCAASGSTFYAYAMGWYRQAPGKERELVAAIRRSTGRTYYADSVKGRFTISRDNAKNTVYLQMNSLKPEDTAVYYCAASYPVDYYDMYYWGQGTQVTVSS | high polyreactivity
8 | QVQLVESGGGLVQAGGSLRLSCAASGRIYGANTMGWYRQAPGKERELVAAISWRGTSTYADSVKGRFSISRDNAKNTVYLQMNSLKPEDTAVYYCAARRRGWPQFDYWGQGTQVTVSS | high polyreactivity
9 | QVQLVESGRGLVQAGGSLRLSCAASGGTFGNNDMGWYRQAPGKERELVAAIRSAGTTYYADSVKGRFTISRDNAKNTVYLQMNSLKPEDTAVYYCNAYTTGYWSYGFQYYGEDYWGQGTQVTVSS | low polyreactivity
10 | QVQLVESGGGLVQAGGSLRLSCAASGFTFTYYAMGWYRQAPGKERELVAVITRSGNTYYADSVKGRFTISRDNAKNTVYLQMNSLKPEDTAVYYCATVGQRLHLGYWGQGTQVTVSS | high polyreactivity
11 | QVQLVESGGGLVQAGGSLRLSCAASGSIFAYNAKGWYRPAPGKEREFVAVITRSDDSTYADSVKWRFTISRDNAKNTVYLQMNSLKPEDTSVYYCAAQPFVIDCGYRGDYWGQATQVTVSS | low polyreactivity
12 | QVQLVESGGGLVQAGGSLRLTCAASGSIFYSYAMGWYRQAPGKERELVAAISWDASTYYADSVNGRFTISRDNAKNTVYLQMHSLKPEDSAVYYCNADIPYFFVFDAYDYWGQGTQVTVSS | low polyreactivity
13 | QVQLVESGGGLVQAGGSLRLSCAASGSTFYYYAMGWYRQAPGKERELVAAITKSGGSTYYADSVKGRFTISRDNAKNTVYLQMNSLKPEDTAVYYCAAYLRSGYKFDYWGQGTQVTVSS | low polyreactivity
14 | QVQLVESGGGLVQAGGSLRLSCAASGGTFRVYVMGWYRQAPGKERELVADISRGGGSTYYADSVKGRFTISRDNAKNTVYLQMNSLKPEDTAVYYCAARVCRYPWRASEYDYWGQGTQVTVSS | high polyreactivity
15 | QVLLQESGGGLVQAGGSLRLSCAASGTISTDIRMGWYRLAPGKEREFVASIDGCSTTYYADSVKGRFTISRDNAKNTVYLQMNSLKPEDTEMYYCAAREATEFYLYYWGQGTQVTVSS | low polyreactivity
16 | QVQLVESGGGLVQAGGSLRLSCAASGSIFVYYAMGWYRQAPGKERELVAAISSGDGTNYADSVKGRFTISRDNAKNTVYLQMNSLKPEDTAVYYCNADLDSGYGSYDYWGQGTEVTVSS | low polyreactivity
17 | QVQLVESGGGLVQAGGSLRLICAASGSTFGAYAMGWYRQAPGKERELVAAISRSGGTTYYADSVKGRFTISRDNSKNTVYLQMNSLKPEDTEVYYCAADWLNSVPYNYWGQGTLVTVSS | low polyreactivity
18 | QVQLVESGGGLVQAGGSLRLSCAASGYTFRYYAMGWYRQAPGKERELVAAISRSGGSTYYADSVKGRFTISRDNAKNTVSLQMNSLKPEDTAVYYCAVALARPYEDYDYWGQGTQVTVSS | high polyreactivity
19 | QVQLVESGGGLVQAGGSLRLSCAASGITFSNYAIGWYRQAPGKERELVAAISKRGGSTYYADSVKGRFTISRDNAKNTVYLQMNSLKPEDTAVYYCAAAGVRVYVRSGLDYWGQGTQVTVSS | high polyreactivity
20 | QVQLVESGGGLVQAGGSLRLSCAASGRTFRYYAMGWNRQAPGKESELVASISRSGGSTYYADSVKGRFTISRDNAKITVYLQMNSLKPEDTAVYYCAVGKGSHYLGFDYWGQGTQVTVSS | high polyreactivity
21 | QVQLVESGGGLVQAGGSLRLSCAASGFTFKLYAMGWYRQSPGKVRELVAAISSSGGRTYYADSVKGRFTISRDNAKYTVYLQMNSLKPEDTAVYYCNAVRTVNDYHYDYWGQGSQVTVSS | high polyreactivity
22 | QVQLVESGGGLVQAGGSLRLICAASGRILRYYAMGWYRQAPGKERELVASISRGGSTYYADSVKGRFTISRDNAKNTFYLQMNSLKPEDTAVYYCAKSVTGWRGLWYTPRNYYWGQGTQVTVSS | high polyreactivity

Row | Sequence | polyreactivity (PSR sort gate)
23 | QVQLVESGGGLVQAGGSLRLSCAASGRIFYANAMGWYRQAPGKERELVAAISSGGSTYYADSVKGRFTISRDNAKNTVYLQMNSLKPEDTAVYYCATDYQSTSVWGGHFVINPYDYWGQGTQVTVSS | low polyreactivity
24 | QVQLVESGGGLVQAGGSLRLSCAASGYTFYFYAMGWSRQAPGKEREFVAAIRSSGGRTYYADSVKGRFTISRDNAKNNVYLQMNSLKPEDTAVYYCAAAGYYYSVDGAGPRYDYWGQGTQVTVSS | low polyreactivity
25 | QVQLVESGGGLVQAGGSLRLSCAASGFTFWYYVMGWYRQAPGKERELVAAITSSGDSTYYADSVKGRFTISRDNAKNTVYLQMNSLKPEDTAVYYCAAQRYPFERDYWGQCTQVTVSS | high polyreactivity
26 | QVQIVESGGGLVQAGGSLRLSCAASGLTLGRNAMGWYRQAPGKERELVAAITQSGGSTYYADSVKGRFTISRDNAKNTVYLQMNSLKPEDTAVYYCAAEVVRQWHGIGYDYWGHGTQVTVSS | low polyreactivity
27 | QVQLVESGVGLVQAGGSLRLSCAASGSIFYNYAMGWYRQAPGKEREFVAAISWSGDTTYYADSVKGRFTISRDNAKNTVYLQMNSLKPEDTAVYYCAAESYIWFWRPYYYWGQGTQVTLSS | low polyreactivity
28 | QVQLVESGGGLVLAGGSLRLSCAASGIIFYRNAMGWYRQAPGKERELVAAITSSGGRTYYADSVKGRFTISRDNAKNTVYLQMNSLKPEDTAVYYCAATRMYWKIFYGDGDYWGQGTQVTVST | high polyreactivity
29 | QVQLVESGGGLVQAGGSLRLSCAASGRIFGVYAMGWYRQAPGKERELVAAISGSTTLTYYADSVKGRFTISRDTAKNTVDLQMNSLKPEDTAVYYCAARSYTPSYKMDYWGQGTKVTVSS | high polyreactivity
30 | QVQLVESGGGLVQAGGSLRLSCAASGSTFSRYVMVWYRQAPGKERELVAAISRSGSTYYADSVKGRFTISRDNAMNTVYLQMNSLKPEDTAVYYFDATGSKSAGYGYWGQGTQVTVSS | high polyreactivity
31 | QVQLEESGGGLVQAGGSLRLSCAASGSIYTYTMGWYRQAPGKERELVAAISWNGGRTYYADSVKGRFTISRDNAKNTVYLQMNSLKPEDTAVYYCNAAISYSYGYWGQGTQVTVSS | high polyreactivity
32 | QVQLVESGGGLVQAGGSLRLSCAASGRTFTRNAMGWYRQAPGKERELVAVITSSGRTNYADSVKGRFTISRDNAKNTVYLQMNSLKPEDTAVYYCNKVSARYPYPLYDYWGQGTQVTVSS | high polyreactivity
33 | QVQLVESGGGLVQAGGSLRLSCAASGLTFPQYAMGWYIQAPGKERELVAAISKTGGSTYYADSVKGRFTISRDNAKNTVYLLMNSLKPEDTAVYYCAAGSSVTPYRYYYWGQGTQVTVSS | high polyreactivity
34 | QVQLVESGGGLVQAGGSLRLSCAASGLTFRPYTMGWYRQAPGKERELVAAISARGGRTYYADSVKGRFTISRDNAKNTVYLQMNSLKPEDTAVYYCATLETTGVNYWGQGTQVTVSS | high polyreactivity
35 | QVQLVESGGGLLLAGGSLRLSCAASGYTFVYNAMGWYRHAPGKEREFVAAITWSGTSTRYADSVKGRFTISRDNAKNNVYLQMKSLKPEDTAVYYCAARRRSAQSGSYNHWGQGTQVTVSS | high polyreactivity
36 | QVQLVESGGGLVQAGGSLRLSSAASGITFYLYAMGWYRQAPGKERELVAGISSGGSTNYADSVKGRFTISRDNAKNTVYLQMNSLKPEDTAVYYCAAKLRGYRYGYWGHGTQVTVSS | high polyreactivity
37 | QVQLVESGGGLVQAGGSLRLSCAASGFTFSYYGMGWYRQAPGKERELVAAISWSGGRTYYADSVKGRFTISRDNAKNTVYLQMNSLKPEDTAVYYCAASAPRGYGYKYYYWGQGTQVTVSS | high polyreactivity
38 | QVQLVESGGRLVQAGGSLRLSCASSGSTFVYYAMGWYRPAPGKERELVAVISDDGGTYYADSVKGRFTISRDNAKNTVYLQMNSLKPEDTAVYYCAIDYYGGAYYWYNDRSGDYWGQGTQVTVSS | low polyreactivity
39 | QVQLGESGGGLVQAGGSLRLSCAASGSIFVPYAMGWYRQAPGKERELVAVITSGGSTYYADSVKGRFTISRDNAKNTVYLQMNSLKPEDTAVYYCYADLYYVWSTLSQFDYWGQGTQVTVSS | low polyreactivity
40 | QVQLVESGGGLVQAGGSLRLSCAASGRIFSGSVMGWYRQAPGKVRELVAGITYRDGSTYYADSVKGRFTISRDNAKNTVYFQMNSLKPEDTAVYYCNADDYNDIPYDYWGQGTQVTVSS | low polyreactivity
41 | QVQLVESGGGLVQAGGSLRLSCAASGFIFWYNAMGWYRQAPGKERELVATISVASTYADSVKGRFTISRDNAKNTVYLQMNSLKPEDTAVYYCAADWAGWEGYRMDYWGQGTQVTVSS | low polyreactivity
42 | QVQLVESGGCLVQAGGSLRLSCAASGSIIWYYAMGWYRQAPGKERELVAAISTGGSTYYADSVKGRFTISRDNAKNTVYLQMNSLKPEDTAVYYCAAGAFGQILNYWGQGTQVTVSS | high polyreactivity
43 | QVQLEESGGGLVQAGGRLRLSCAASGSTYSEYAMGWSRKAPGKQRELVAAINWSGGSTYYADSVKGRFTISRDNAKNTVYLQMNSLKPEDTAVYYCNKVFRHHWYPAYNSWGQGTQVTVSS | low polyreactivity
